Results on one protein are retold here after paper PMC11352367 (Cells, 2024).

The data set concerns the molecule itself. Kind of data set: high-speed atomic force microscopy; α-actinin alone (50 nM) on bare mica, observation buffer, room temperature.

B1: Rabbit skeletal muscle-derived α-actinin (natural protein)
chain: MNQIEPGVQYNYVYDEDEYMIQEEEWDRDLLLDPAWEKQQRKTFTAWCNSHLRKAGTQIENIEEDFRNGLKLMLLLEVISGERLPKPDRGKMRFHKIANVNKALDYIASKGVKLVSIGAEEIVDGNVKMTLGMIWTIILRFAIQDISVEETSAKEGLLLWCQRKTAPYRNVNIQNFHTSWKDGLGLCALIHRHRPDLIDYSKLNKDDPIGNINLAMEIAEKHLDIPKMLDAEDIVNTPKPDERAIMTYVSCFYHAFAGAEQAETAANRICKVLAVNQENERLMEEYERLASELLEWIRRTIPWLENRTPEKTMKAMQKKLEDFRDYRRKHKPPKVQEKCQLEINFNTLQTKLRISNRPAFMPSEGKMVSDAGAWQRLEQAEKGYEEWLLNEIRRLERLEHLAEKFRQKASTHETWAYGKEQILLQKDYESASLTEVRALLRKHEAFESDLAAHQDRVEQIAAIAQELNELDYHDAVNVNDRCQKICDQWDRLGTLTQKRREALERTEKLLETIDQLHLEFAKRAAPFNNWMEGAMEDLQDMFIVHSIEEIQSLITAHEQFKATLPEADGERQSIMAIQNEVEKVIQSYNIRISSSNPYSTVTMDELRAKWDKVKQLVPIRDQSLQEELARQHANERLRRQFAAQANAIGPWIQNKMEEIARSSIQITGALEDQMNQLKQYEHNIINYKNNIDKLEGDHQLIQEALVFDNKHTNYTMEHIRVGWELLLTTIARTINEVETQILTRDAKGITQEQMNEFRASFNHFDRRKNGLMDHEDFRACLISMGYDLGEAEFARIMTLVDPNGQGTVTFQSFIDFMTRETADTDTAEQVIASFRILASDKPYILAEELRRELPPDQAQYCIKRMPAYSGPGSVPGALDYTAFSSALYGESDL
For orientation: stoichiometry N means the number of molecules, sites or subunits per partner or assembly. As to B1, the “stoichiometry N” value turned out to be 2.
